Data published in the supplement of paper PMC7877785.
± gives the uncertainty stated by the source.

Assay: self-splicing fitness, log relative to wild type (ln ratio); higher = more splicing; Tetrahymena group I intron in knt gene, E. coli kanamycin selection, DiMSum; sequences stand for … in CUCUCU…GGAGGGAAAAGUUAUCAGGCAUGCACCUGGUAGCUAGUCUUUAAACCAAUAGAUUGCAUCGGUUUAAAAGGCAAGACCGUCAAAUUGCGGGAAAGGGGUCAACAGCCGUUCAGUACCAAGUCUCAGGGGAAACUUUGAGAUGGCCUUGCAAAGGGUAUGGUAAUAAGCUGACGGACAUGGUCCUAACCACGCAGCCAAGUCCUAAGUCAACAGAUCUUCUGUUGAUAUGGAUGCAGUUCACAGACUAAAUGUCGGUCGGGGAAGAUGUAUUCUUCUCAUAAGAUAUAGUCGGACCUCUCCUUAAUGGGAGCUAGCGGAUGAAGUGAUGCAACACUGGAGCCGCUGGGAACUAAUUUGUAUGCGAAAGUAUAUUGAUUAGUUUUGGAGUACUCGUGGUCG
Summary of the method: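 Library with all eight P1ex-region intron nucleotides randomised, intron inside the knt kanamycin-resistance gene on pET-22b(+), in E. coli BL21(DE3). Cells grew overnight at 37°C or 30°C on LB agar with or without 25 μg/mL kanamycin (plus 100 μg/mL carbenicillin, 50 μM IPTG, 0.2% rhamnose), in six replicate transformations. Pooled colonies were amplicon-sequenced on Illumina HiSeq 2500. DiMSum fitness is the error-weighted combination of wild-type-normalised replicate fold changes, kanamycin versus none.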

| Sequence | self-splicing fitness (ln) (30 °C) | self-splicing fitness (ln) (37 °C) |
| --- | --- | --- |
| UCGAAGCAAUAUUACGUUUG | -2.67 ± 0.13 | -1.88 ± 0.15 |
| UCGCAGCAAUAUUACGAAUU | -4.07 ± 0.34 | -2.75 ± 0.17 |
| UCGCAGCAAUAUUACGACAU | -3.604 ± 0.025 | -2.56 ± 0.037 |
| UCGCAGCAAUAUUACGAGUG | -1.48 ± 0.088 | -0.719 ± 0.1 |
| UCGCAGCAAUAUUACGAUAC | -3.52 ± 0.46 | -2.76 ± 0.34 |
| UCGCAGCAAUAUUACGAUGA | -0.691 ± 0.072 | 0.0326 ± 0.081 |
| UCGCAGCAAUAUUACGAUGC | -3.73 ± 0.28 | -1.64 ± 0.2 |
| UCGCAGCAAUAUUACGAUUG | -3.66 ± 0.18 | -1.9 ± 0.16 |
| UCGCAGCAAUAUUACGCACA | -0.0778 ± 0.1 | -0.131 ± 0.13 |
| UCGCAGCAAUAUUACGCACC | -1.68 ± 0.27 | -1.6 ± 0.38 |
| UCGCAGCAAUAUUACGCAGA | -3.72 ± 0.29 | -0.987 ± 0.12 |
| UCGCAGCAAUAUUACGCCCG | -1.51 ± 0.35 | – |
| UCGCAGCAAUAUUACGCGGU | -4.16 ± 0.24 | -2.41 ± 0.28 |
| UCGCAGCAAUAUUACGCUGA | -2.33 ± 0.21 | -1.15 ± 0.14 |
| UCGCAGCAAUAUUACGCUUA | -1.67 ± 0.12 | -0.94 ± 0.09 |
| UCGCAGCAAUAUUACGGACU | -2.14 ± 0.16 | -0.513 ± 0.16 |
| UCGCAGCAAUAUUACGGAUA | -2.58 ± 0.25 | -2.44 ± 0.26 |
| UCGCAGCAAUAUUACGGCGG | -3.41 ± 0.17 | -2.28 ± 0.21 |
| UCGCAGCAAUAUUACGGUUC | -3.65 ± 0.43 | -1.66 ± 0.3 |
| UCGCAGCAAUAUUACGUAUG | -1.83 ± 0.1 | -2.02 ± 0.15 |
| UCGCAGCAAUAUUACGUCAC | -3.57 ± 0.15 | -2.85 ± 0.16 |
| UCGCAGCAAUAUUACGUCCU | -1 ± 0.097 | -0.105 ± 0.092 |
| UCGCAGCAAUAUUACGUCUU | -1 ± 0.11 | -0.165 ± 0.12 |
| UCGCAGCAAUAUUACGUGCG | -4.06 ± 0.22 | -3.23 ± 0.3 |
| UCGCAGCAAUAUUACGUUAG | -2.74 ± 0.15 | -1.63 ± 0.17 |
| UCGCAGCAAUAUUACGUUCA | -0.883 ± 0.07 | 0.0196 ± 0.064 |
| UCGGAGCAAUAUUACGAUUA | – | 0.203 ± 0.28 |

| Sequence | self-splicing fitness (ln) (30 °C) | self-splicing fitness (ln) (37 °C) |
| --- | --- | --- |
| UCGGAGCAAUAUUACGCUAC | -2.11 ± 0.34 | – |
| UCGGAGCAAUAUUACGCUCU | -2.27 ± 0.36 | -1.68 ± 0.23 |
| UCGGAGCAAUAUUACGCUGC | -3.04 ± 0.38 | – |
| UCGGAGCAAUAUUACGGAAU | – | -2.38 ± 0.42 |
| UCGGAGCAAUAUUACGGCUA | – | -1.32 ± 0.39 |
| UCGGAGCAAUAUUACGGCUG | -2.33 ± 0.18 | -1.5 ± 0.19 |
| UCGGAGCAAUAUUACGGGAC | – | -1.99 ± 0.29 |
| UCGGAGCAAUAUUACGGGCG | -1.37 ± 0.11 | -1.39 ± 0.18 |
| UCGGAGCAAUAUUACGGUGA | -1.82 ± 0.27 | -1.05 ± 0.2 |
| UCGGAGCAAUAUUACGUAAG | -2.77 ± 0.46 | -1.39 ± 0.42 |
| UCGGAGCAAUAUUACGUCCU | -1.79 ± 0.17 | -0.83 ± 0.25 |
| UCGGAGCAAUAUUACGUGGC | – | -1.95 ± 0.38 |
| UCGGAGCAAUAUUACGUUCA | – | -2.2 ± 0.47 |
| UCGGAGCAAUAUUACGUUGC | -2.44 ± 0.28 | -1.78 ± 0.42 |
| UCGGAGCAAUAUUACGUUGU | -3.7 ± 0.22 | -1.93 ± 0.21 |
| UCGUAGCAAUAUUACGAAGU | -3.58 ± 0.47 | -3.06 ± 0.35 |
| UCGUAGCAAUAUUACGAAUU | -3.74 ± 0.29 | -3.57 ± 0.46 |
| UCGUAGCAAUAUUACGAGAU | -4.2 ± 0.42 | -2.6 ± 0.39 |
| UCGUAGCAAUAUUACGCCGA | -0.812 ± 0.31 | -2.03 ± 0.27 |
| UCGUAGCAAUAUUACGCCUA | -0.658 ± 0.13 | 0.291 ± 0.11 |
| UCGUAGCAAUAUUACGCGAU | -3.29 ± 0.24 | -2.36 ± 0.28 |
| UCGUAGCAAUAUUACGGAGA | -2.51 ± 0.18 | -2.53 ± 0.27 |
| UCGUAGCAAUAUUACGGAUA | -1.59 ± 0.34 | -1.02 ± 0.28 |
| UCGUAGCAAUAUUACGGCCA | -0.72 ± 0.13 | -0.85 ± 0.16 |
| UCGUAGCAAUAUUACGGGAG | -2.85 ± 0.2 | -3.28 ± 0.25 |
| UCGUAGCAAUAUUACGGUGA | -1.57 ± 0.096 | -1.11 ± 0.1 |
| UCGUAGCAAUAUUACGUAAC | -1.64 ± 0.34 | – |

| Sequence | self-splicing fitness (ln) (30 °C) | self-splicing fitness (ln) (37 °C) |
| --- | --- | --- |
| UCGUAGCAAUAUUACGUAAG | -2.62 ± 0.23 | -2.58 ± 0.32 |
| UCGUAGCAAUAUUACGUCAU | -3.23 ± 0.35 | -2.17 ± 0.33 |
| UCGUAGCAAUAUUACGUCGU | -4.26 ± 0.32 | -1.25 ± 0.18 |
| UCGUAGCAAUAUUACGUGUG | -2.3 ± 0.1 | -1.41 ± 0.089 |
| UCGUAGCAAUAUUACGUUUU | -2.58 ± 0.17 | -3.25 ± 0.23 |
| UCUAAGCAAUAUUACGAAAG | -2.88 ± 0.17 | -2.03 ± 0.18 |
| UCUAAGCAAUAUUACGAAUC | – | -2.3 ± 0.45 |
| UCUAAGCAAUAUUACGACGG | 0.00998 ± 0.076 | 0.286 ± 0.11 |
| UCUAAGCAAUAUUACGAGAG | -3.21 ± 0.28 | -2.37 ± 0.21 |
| UCUAAGCAAUAUUACGAGUG | -0.69 ± 0.092 | -0.683 ± 0.14 |
| UCUAAGCAAUAUUACGAUAA | -1.46 ± 0.17 | -0.693 ± 0.2 |
| UCUAAGCAAUAUUACGCAGG | -2.92 ± 0.23 | -2.36 ± 0.41 |
| UCUAAGCAAUAUUACGCGAA | -3.03 ± 0.2 | -1.69 ± 0.16 |
| UCUAAGCAAUAUUACGCUUU | -3.36 ± 0.21 | -2.94 ± 0.48 |
| UCUAAGCAAUAUUACGGAAA | -2.93 ± 0.28 | -1.9 ± 0.27 |
| UCUAAGCAAUAUUACGGCAC | -3.19 ± 0.44 | -2.85 ± 0.32 |
| UCUAAGCAAUAUUACGGUCA | -1.31 ± 0.12 | -0.792 ± 0.12 |
| UCUAAGCAAUAUUACGUAAA | -1.36 ± 0.097 | -0.985 ± 0.12 |
| UCUAAGCAAUAUUACGUACA | -1.57 ± 0.13 | -1.13 ± 0.13 |
| UCUAAGCAAUAUUACGUACG | -0.481 ± 0.11 | 0.49 ± 0.13 |
| UCUAAGCAAUAUUACGUAUC | -4.13 ± 0.24 | -3.01 ± 0.21 |
| UCUAAGCAAUAUUACGUGCC | -4.37 ± 0.39 | – |
| UCUAAGCAAUAUUACGUGUC | -4.21 ± 0.36 | – |
| UCUAAGCAAUAUUACGUUUG | -3.95 ± 0.3 | -2.4 ± 0.24 |
| UCUCAGCAAUAUUACGAAAG | -1.9 ± 0.26 | -1.36 ± 0.21 |
